Assays:
Grb2 SH2 = Grb2 SH2 (UniProt P62993); assay: SH2 binding enrichment of the phosphorylated peptide, bacterial display (enrichment ratio); higher = better substrate or ligand; peptides without Tyr show the background
SHP2-C SH2 = assay: as above
c-Src SH2 = assay: as above
EPHB1 = EPHB1 (UniProt P54762); assay: phosphorylation enrichment, bacterial display (enrichment ratio); higher = better substrate or ligand; peptides without Tyr show the background
c-Src = assay: as above
Fyn = Fyn (UniProt P06241); assay: as above
Fyn, sequence (P06241 whole entry, looked up): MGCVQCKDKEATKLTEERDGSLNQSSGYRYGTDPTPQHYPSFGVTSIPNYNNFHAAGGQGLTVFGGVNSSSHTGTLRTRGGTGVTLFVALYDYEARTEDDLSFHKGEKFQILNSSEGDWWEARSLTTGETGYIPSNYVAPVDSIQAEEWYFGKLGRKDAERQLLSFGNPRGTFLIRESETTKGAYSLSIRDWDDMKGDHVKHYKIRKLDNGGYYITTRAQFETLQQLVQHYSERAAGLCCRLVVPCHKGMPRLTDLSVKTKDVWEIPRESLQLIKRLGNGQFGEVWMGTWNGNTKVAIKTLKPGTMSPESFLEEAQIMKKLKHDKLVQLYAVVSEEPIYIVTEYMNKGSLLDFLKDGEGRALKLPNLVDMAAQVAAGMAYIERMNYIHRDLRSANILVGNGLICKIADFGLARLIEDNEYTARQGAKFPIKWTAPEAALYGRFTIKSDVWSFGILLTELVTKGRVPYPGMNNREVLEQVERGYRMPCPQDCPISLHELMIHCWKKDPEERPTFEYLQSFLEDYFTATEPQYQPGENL

Jak2 = Jak2 (UniProt O60674); assay: as above
Jak2, sequence (O60674 whole entry, looked up): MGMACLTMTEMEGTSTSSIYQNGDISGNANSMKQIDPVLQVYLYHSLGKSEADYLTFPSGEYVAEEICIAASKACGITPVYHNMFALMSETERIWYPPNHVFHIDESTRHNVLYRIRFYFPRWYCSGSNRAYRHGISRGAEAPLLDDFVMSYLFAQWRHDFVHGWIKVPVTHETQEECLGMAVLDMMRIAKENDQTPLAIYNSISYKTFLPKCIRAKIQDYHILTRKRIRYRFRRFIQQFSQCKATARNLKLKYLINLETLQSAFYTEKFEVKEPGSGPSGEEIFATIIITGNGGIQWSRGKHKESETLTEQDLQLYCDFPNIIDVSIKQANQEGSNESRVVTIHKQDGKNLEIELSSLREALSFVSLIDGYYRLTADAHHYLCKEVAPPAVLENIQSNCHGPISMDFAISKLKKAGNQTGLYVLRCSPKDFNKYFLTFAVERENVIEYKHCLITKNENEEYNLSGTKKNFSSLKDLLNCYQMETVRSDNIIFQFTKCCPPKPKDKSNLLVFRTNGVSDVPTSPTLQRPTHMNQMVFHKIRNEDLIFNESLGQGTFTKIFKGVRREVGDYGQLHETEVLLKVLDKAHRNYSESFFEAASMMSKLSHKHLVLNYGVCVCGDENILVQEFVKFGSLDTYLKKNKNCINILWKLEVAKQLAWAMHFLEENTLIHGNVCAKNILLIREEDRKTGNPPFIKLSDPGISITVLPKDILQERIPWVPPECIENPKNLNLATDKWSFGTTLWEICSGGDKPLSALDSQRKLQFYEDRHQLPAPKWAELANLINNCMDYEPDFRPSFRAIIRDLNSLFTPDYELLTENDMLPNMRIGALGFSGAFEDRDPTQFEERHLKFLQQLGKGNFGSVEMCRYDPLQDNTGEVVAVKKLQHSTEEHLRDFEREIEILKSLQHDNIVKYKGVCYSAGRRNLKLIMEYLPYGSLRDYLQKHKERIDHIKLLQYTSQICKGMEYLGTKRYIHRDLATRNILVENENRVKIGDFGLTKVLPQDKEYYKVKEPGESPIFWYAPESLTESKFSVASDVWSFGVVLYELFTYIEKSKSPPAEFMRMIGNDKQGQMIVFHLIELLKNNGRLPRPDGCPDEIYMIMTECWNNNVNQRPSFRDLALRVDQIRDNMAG

Fes = Fes (UniProt P07332); assay: as above
AncSZ = assay: as above
EPHB2 = EPHB2 (UniProt P29323); assay: as above
EPHB2, sequence (P29323 whole entry, looked up): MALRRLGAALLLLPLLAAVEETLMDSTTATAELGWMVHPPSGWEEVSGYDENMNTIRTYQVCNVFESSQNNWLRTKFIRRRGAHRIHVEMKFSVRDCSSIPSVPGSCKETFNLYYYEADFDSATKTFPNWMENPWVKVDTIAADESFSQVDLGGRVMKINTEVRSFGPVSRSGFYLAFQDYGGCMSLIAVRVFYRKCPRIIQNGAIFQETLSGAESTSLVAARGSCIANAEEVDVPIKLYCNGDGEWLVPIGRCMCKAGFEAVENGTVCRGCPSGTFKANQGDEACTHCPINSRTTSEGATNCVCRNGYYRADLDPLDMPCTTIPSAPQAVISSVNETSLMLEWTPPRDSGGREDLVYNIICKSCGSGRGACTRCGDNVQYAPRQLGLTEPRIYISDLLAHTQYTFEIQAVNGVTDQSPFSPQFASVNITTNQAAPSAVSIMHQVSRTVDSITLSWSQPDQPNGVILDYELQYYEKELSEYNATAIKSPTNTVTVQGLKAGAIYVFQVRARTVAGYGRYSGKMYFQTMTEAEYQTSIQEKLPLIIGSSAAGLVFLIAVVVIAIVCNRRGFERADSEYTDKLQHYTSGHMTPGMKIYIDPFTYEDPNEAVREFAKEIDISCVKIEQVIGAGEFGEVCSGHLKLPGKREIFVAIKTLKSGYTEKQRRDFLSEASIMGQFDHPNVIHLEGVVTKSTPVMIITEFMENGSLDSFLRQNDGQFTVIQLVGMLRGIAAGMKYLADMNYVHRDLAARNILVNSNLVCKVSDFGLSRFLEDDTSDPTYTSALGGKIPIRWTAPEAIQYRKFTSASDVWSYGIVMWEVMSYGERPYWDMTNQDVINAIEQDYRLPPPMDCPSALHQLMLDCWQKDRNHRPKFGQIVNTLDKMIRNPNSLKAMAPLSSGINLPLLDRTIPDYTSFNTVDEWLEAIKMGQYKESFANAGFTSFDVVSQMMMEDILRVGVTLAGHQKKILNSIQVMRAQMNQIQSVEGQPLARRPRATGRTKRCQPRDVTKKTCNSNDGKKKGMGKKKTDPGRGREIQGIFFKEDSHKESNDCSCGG

FGFR1 = FGFR1 (UniProt P11362); assay: as above
Hck = Hck (UniProt P08631); assay: as above
Hck, sequence (P08631 whole entry, looked up): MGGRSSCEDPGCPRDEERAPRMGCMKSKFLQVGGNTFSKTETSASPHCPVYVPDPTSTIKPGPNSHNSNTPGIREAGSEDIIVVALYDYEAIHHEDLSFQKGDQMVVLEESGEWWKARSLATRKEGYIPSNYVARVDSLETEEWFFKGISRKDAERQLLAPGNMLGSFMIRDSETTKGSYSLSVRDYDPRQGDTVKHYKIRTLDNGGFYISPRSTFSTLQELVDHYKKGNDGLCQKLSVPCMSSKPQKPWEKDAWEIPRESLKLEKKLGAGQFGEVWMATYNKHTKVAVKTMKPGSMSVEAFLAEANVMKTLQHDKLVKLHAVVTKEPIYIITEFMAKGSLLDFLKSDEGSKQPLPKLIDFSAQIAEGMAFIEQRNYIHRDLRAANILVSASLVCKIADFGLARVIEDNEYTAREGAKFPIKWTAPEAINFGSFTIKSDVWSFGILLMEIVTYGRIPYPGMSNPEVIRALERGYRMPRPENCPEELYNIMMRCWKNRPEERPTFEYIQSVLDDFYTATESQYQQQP

c-Abl (mouse) = assay: as above
Fer (mouse) = assay: as above
FGFR3 = FGFR3 (UniProt P22607); assay: as above
FGFR3, sequence (P22607 whole entry, looked up): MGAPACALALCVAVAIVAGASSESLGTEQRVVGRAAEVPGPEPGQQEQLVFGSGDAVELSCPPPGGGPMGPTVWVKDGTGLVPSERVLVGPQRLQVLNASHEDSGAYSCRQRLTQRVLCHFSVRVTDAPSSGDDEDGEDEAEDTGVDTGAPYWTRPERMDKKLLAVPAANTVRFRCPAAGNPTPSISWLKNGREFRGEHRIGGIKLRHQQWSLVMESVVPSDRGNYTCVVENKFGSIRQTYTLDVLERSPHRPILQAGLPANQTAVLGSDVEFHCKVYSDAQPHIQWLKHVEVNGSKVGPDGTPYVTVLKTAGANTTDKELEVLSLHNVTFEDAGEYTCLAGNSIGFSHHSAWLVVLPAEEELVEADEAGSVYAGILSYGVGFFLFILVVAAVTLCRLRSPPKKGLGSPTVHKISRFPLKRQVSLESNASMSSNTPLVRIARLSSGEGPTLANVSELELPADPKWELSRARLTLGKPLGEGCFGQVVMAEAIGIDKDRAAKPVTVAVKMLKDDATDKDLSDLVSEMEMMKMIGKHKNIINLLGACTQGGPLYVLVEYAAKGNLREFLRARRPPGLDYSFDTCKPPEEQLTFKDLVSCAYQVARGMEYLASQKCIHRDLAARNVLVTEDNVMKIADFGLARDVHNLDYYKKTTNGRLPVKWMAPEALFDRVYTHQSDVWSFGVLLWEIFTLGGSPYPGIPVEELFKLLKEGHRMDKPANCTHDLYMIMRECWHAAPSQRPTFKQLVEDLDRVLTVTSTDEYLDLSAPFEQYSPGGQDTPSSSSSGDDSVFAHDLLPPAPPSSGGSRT

MERTK = MERTK (UniProt Q12866); assay: as above
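Wherever SH2 binding enrichment of the phosphorylated peptide, bacterial display is given: peptide library displayed on the E. coli surface as eCPX fusions, selected cells deep-sequenced, score is each peptide's frequency after selection divided by its frequency in the input.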
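Wherever phosphorylation enrichment, bacterial display is given: 11-residue human phosphosite peptides and single-mutation variants displayed on the E. coli surface, counted by deep sequencing, each peptide's frequency after selection divided by its frequency in the unselected input library; frequency after pTyr selection over input frequency; kinase dosed for 20-30% of maximal phosphorylation in three min.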

EPHB1, sequence (P54762 whole entry, looked up): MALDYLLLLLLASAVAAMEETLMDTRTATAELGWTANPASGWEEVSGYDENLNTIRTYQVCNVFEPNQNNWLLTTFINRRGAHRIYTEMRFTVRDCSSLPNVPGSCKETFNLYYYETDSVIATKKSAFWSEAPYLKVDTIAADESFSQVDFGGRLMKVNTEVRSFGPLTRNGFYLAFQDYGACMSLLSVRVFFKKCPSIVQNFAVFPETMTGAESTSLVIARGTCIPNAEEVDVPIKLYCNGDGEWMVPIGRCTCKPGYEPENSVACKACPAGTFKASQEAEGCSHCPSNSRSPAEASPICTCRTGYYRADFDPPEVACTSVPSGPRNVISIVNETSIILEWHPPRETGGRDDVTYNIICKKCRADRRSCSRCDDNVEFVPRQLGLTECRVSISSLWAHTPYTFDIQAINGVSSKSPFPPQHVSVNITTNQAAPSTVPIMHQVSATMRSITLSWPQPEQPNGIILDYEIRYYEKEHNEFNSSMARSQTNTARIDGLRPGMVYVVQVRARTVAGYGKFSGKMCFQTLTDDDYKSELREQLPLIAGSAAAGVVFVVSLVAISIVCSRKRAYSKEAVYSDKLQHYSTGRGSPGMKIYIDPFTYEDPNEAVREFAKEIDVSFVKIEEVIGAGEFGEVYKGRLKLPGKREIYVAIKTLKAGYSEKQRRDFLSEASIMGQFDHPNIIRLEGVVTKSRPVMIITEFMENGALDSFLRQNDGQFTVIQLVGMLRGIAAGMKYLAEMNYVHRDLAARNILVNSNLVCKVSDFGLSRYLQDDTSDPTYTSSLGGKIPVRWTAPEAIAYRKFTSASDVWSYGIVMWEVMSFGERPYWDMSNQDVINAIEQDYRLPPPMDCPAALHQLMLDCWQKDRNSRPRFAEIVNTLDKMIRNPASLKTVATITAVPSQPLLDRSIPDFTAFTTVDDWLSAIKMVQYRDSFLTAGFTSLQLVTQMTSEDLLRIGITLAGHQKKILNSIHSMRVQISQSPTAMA

Sequence	SH2 binding enrichment (Grb2 SH2)	SH2 binding enrichment (SHP2-C SH2)	SH2 binding enrichment (c-Src SH2)	phosphorylation enrichment (EPHB1)	phosphorylation enrichment (c-Src)	phosphorylation enrichment (Fyn)	phosphorylation enrichment (Jak2)	phosphorylation enrichment (Fes)	phosphorylation enrichment (AncSZ)	phosphorylation enrichment (EPHB2)	phosphorylation enrichment (FGFR1)	phosphorylation enrichment (Hck)	phosphorylation enrichment (c-Abl (mouse))	phosphorylation enrichment (Fer (mouse))	phosphorylation enrichment (FGFR3)	phosphorylation enrichment (MERTK)
TSESSYFKSLN [NGEF_Y288_A286S_YF]	0.776	0.553	0.437	0.433	0.411	0.395	0.67	0.91	0.766	0.37	0.41	0.455	0.636	0.436	0.705	0.362
TSFSGYRFHRH [NKAPL_Y94_YF]	1.28	1.01	0.942	0.429	0.579	0.472	0.546	0.788	0.558	0.471	0.44	0.515	0.601	0.384	0.677	0.452
TSSAGYRRTPS [ABI1_Y333_G331A]	1.03	0.405	0.45	0.42	0.444	0.484	0.476	0.594	0.565	0.497	0.499	0.446	0.576	0.36	0.491	0.392
TTKGAYSLSVR [YES1_Y194_I198V]	0.768	0.558	0.402	0.404	0.376	0.317	0.511	0.73	0.894	0.5	0.405	0.483	0.517	0.403	0.548	0.364
TTKGSYSLSVR [HCK_Y180]	0.876	0.664	0.51	0.448	0.568	0.461	1.04	0.727	0.674	0.43	0.558	0.433	0.624	0.388	0.582	0.455
TVHCDYLNISH [TAF1L_Y1385_P1389S]	1.17	0.58	0.567	1.55	0.588	0.451	1.29	1.04	1.1	0.634	2.38	0.562	0.663	0.546	1.69	0.373
TVHPGYGFLSE [PCCA_Y143_A138T]	0.941	0.962	0.433	0.455	0.566	0.384	0.676	0.747	0.717	0.467	0.393	0.488	0.529	0.425	0.478	0.396
TVQVAYFTVMM [SPATA17_Y83_M86V_YF]	0.775	0.651	0.415	0.838	0.666	0.595	1.3	1.55	1.44	0.758	0.729	0.61	0.921	0.842	1.09	0.486
TVSQPYSFIEF [SEC22B_Y110_R108Q]	1.06	10.1	9.41	0.878	5.66	4.91	0.933	3.48	1.29	0.54	11.5	3.08	0.805	19.4	8.47	8.32
TVSTRYTQPQP [SARG_Y259]	0.744	1.03	0.81	0.386	0.364	0.442	0.605	0.561	0.616	0.427	0.446	0.37	0.576	0.471	0.39	0.394
TWNPKYTLRSH [STRN3_Y474]	1.11	0.883	0.943	0.399	0.348	0.426	0.524	0.74	0.614	0.468	0.433	0.492	0.473	0.378	0.54	0.409
TWSPKYTLRSH [STRN3_Y474_N471S]	1.28	1.16	1.2	0.593	0.348	0.445	0.728	0.87	0.735	0.477	0.353	0.419	0.52	0.389	0.529	0.426
VAVVQYSGMGQ [COL6A1_Y878_T881M]	0.763	0.927	0.603	0.382	0.451	0.439	0.612	0.757	0.554	0.363	0.44	0.416	0.62	0.407	0.506	0.524
VDASFCGGRGV [ANTXR2_Y381_Y381C_YF]	0.728	0.559	0.389	0.514	0.413	0.405	0.894	1.11	0.818	0.495	0.531	0.539	0.744	0.49	0.629	0.396

Source: the supplement of paper PMC10065799, “High-throughput profiling of sequence recognition by tyrosine kinases and SH2 domains using bacterial peptide display” (eLife, 2023)
